Numbered stars: 1 amine (or outer) side, 2 acyl side, 3 side chain; on linkers, the order of the positions; unused ones are H or OH. Bridge positions count the residues as written; N and C are the ends. Side chains are listed from the residue outwards. Ends that are not written are not given here. * marks the point of attachment. C20 diacid = O=C(O)CCCCCCCCCCCCCCCCCCC(=O)*; γGlu = O=C(O)[C@H](CCC(=O)[*:2])N[*:1]; AEEA = NCCOCCOCC(=O)O
Columns and labels:
rat calcitonin receptor [1] = target: T1, rat calcitonin receptor (rat, UniProt P32214 25-516); experiment: ratio IC50 rat calcitonin receptor / IC50 rat amylin receptor (reference)
T1 construct: whole, on cells; Membranes of transiently transfected BHK tk'ts 13 cells (Assay VIII); also called rCTR
T1 sequence (looked up): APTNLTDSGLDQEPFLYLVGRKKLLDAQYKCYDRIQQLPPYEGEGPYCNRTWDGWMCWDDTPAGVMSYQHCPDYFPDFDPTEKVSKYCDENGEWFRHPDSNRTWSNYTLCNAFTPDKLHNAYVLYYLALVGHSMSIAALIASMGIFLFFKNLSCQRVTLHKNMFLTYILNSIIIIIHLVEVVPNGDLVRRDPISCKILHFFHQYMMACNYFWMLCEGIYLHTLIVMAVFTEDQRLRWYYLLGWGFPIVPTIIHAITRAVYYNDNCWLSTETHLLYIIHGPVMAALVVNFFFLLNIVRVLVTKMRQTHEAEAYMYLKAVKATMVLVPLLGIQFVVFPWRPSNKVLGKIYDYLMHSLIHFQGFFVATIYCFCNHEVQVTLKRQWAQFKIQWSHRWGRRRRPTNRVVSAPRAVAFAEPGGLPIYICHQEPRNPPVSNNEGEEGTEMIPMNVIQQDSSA

[2] = target: T2, human calcitonin receptor (human, UniProt P30988 25-474); experiment: ratio IC50 human calcitonin receptor / IC50 human amylin receptor (reference)
T2 construct: whole, on cells; Membranes of a stably transfected BHK cell line (Assay VII); also called hCTR; hCT
T2 sequence (looked up): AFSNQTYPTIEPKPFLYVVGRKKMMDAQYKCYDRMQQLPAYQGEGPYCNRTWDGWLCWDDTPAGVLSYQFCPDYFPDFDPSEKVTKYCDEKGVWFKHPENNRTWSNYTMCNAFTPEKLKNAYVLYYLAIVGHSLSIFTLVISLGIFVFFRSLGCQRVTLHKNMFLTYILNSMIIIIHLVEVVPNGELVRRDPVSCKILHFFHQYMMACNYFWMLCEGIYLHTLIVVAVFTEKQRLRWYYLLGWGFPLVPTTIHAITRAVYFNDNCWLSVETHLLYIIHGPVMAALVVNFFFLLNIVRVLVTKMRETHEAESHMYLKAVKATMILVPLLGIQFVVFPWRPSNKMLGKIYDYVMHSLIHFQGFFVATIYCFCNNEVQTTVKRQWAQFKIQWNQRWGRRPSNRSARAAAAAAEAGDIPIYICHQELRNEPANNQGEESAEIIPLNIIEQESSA
Description: The resulting pellet was resuspended, homogenized and centrifuged (20.000 rpm, 15 min) in a buffer containing 20 mM Na-HEPES and 0.1 mM EDTA (pH 7.4, buffer 2). The resulting pellet was resuspended in buffer 2 and protein concentration was measured (BCA protein Assay, Pierce). The homogenate was kept cold during the whole procedure. The membranes were kept at −80° C. until use. The assay was performed in a 384 well Optiplate (PerkinElmer) in a total volume of 40 ul. Membranes were mixed with SPA beads. Final concentration of membranes 35 ng/μL final and SPA beads was 0.05 mg/well. Test-compounds were dissolved in DMSO and further diluted in assay buffer (50 mM Hepes, pH 7.4, 1 mM CaCl2, 5 mM MgCl₂, 0.1% OA and 0.02% Tween20). […] The final mixture was incubated with shaking at 400 rpm for 120 min at 25° C. prior to centrifugation (1500 rpm, 10 min). Samples were analyzed on TopCounter™ (Packard). The IC₅₀ was calculated using (one site binding competition analysis) GraphPad Prism5 as a measure of receptor affinity.
Membranes were prepared in the following way; the cells were rinsed with PBS and incubated with Versene for approximately 5 min before harvesting. The cells were flushed with PBS and the cell-suspension was centrifuged for 5 min at 1000 rpm. Cells were homogenized (Ultrathurrax) in a buffer containing 20 mM Na-HEPES and 10 mM EDTA (pH 7.4) and centrifuged at 20.000 rpm for 15 min. The resulting pellet was resuspended, homogenized and centrifuged (20.000 rpm, 15 min) in a buffer containing 20 mM Na-HEPES and 0.1 mM EDTA (pH 7.4, buffer 2). The resulting pellet was resuspended in buffer 2 and protein concentration was measured (BCA protein Assay, Pierce). The homogenate was kept cold during the whole procedure. The membranes were kept at −80° C. until use. Assay was performed in a 384 well Optiplate (PerkinElmer) in a total volume of 40 ul. Membranes were mixed with SPA beads.

rat calcitonin receptor [3] = target: T1, rat calcitonin receptor; experiment: SPA competition with 125I-calcitonin, membranes of BHK cells with rat calcitonin receptor (Assay VIII)
[4] = target: T3, rat amylin receptor (rat calcitonin receptor + rat RAMP 3) (rat, UniProt P32214 25-516; Q9JJ73 23-147); experiment: SPA competition with 125I-rat amylin, membranes of BHK cells with rat calcitonin receptor + rat RAMP3 (Assay VI)
T3 construct: whole, on cells; Membranes of transiently transfected BHK tk'ts 13 cells (Assay VI); also called rAmylin-R; rat amylin 3(a) receptor
T3 sequence (looked up) 1: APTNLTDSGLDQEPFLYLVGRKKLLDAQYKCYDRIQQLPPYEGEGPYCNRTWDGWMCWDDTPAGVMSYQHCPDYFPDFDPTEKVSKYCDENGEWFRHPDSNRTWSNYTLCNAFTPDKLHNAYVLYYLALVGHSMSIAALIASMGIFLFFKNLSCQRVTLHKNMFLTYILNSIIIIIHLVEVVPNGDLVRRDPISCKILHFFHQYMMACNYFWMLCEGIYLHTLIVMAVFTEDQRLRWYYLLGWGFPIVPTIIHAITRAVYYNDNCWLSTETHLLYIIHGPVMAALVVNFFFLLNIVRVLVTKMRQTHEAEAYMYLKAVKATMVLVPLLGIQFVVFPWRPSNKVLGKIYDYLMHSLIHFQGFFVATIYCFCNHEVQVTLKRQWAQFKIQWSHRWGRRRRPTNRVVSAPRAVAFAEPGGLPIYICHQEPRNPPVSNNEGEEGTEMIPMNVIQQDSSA
T3 sequence (looked up) 2: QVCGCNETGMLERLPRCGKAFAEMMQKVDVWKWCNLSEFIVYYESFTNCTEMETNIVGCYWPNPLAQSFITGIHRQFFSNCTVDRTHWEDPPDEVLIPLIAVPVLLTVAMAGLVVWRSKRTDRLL

Row | Binder | Ratio rCT/rAmylin binding (rat calcitonin receptor [1]) | Ratio hCT/hAmylin binding [2] | IC50 (rat calcitonin receptor [3]) [nM] | IC50 [4] [nM]
1 | K([AEEA-C20 diacid])CNTATCATQRLAHFLRHSSPNFGAIPSSTNVGSNTY-NH2 (disulfide 2-7; N-terminus assumed; SMILES CC[C@H](C)[C@H](NC(=O)[C@H](C)NC(=O)CNC(=O)[C@H](Cc1ccccc1)NC(=O)[C@H](CC(N)=O)NC(=O)[C@@H]1CCCN1C(=O)[C@H](CO)NC(=O)[C@H](CO)NC(=O)[C@H](Cc1c[nH]cn1)NC(=O)[C@H](CCCNC(=N)N)NC(=O)[C@H](CC(C)C)NC(=O)[C@H](Cc1ccccc1)NC(=O)[C@H](Cc1c[nH]cn1)NC(=O)[C@H](C)NC(=O)[C@H](CC(C)C)NC(=O)[C@H](CCCNC(=N)N)NC(=O)[C@H](CCC(N)=O)NC(=O)[C@@H](NC(=O)[C@H](C)NC(=O)[C@@H]1CSSC[C@H](NC(=O)[C@@H](N)CCCCNC(=O)COCCOCCNC(=O)CCCCCCCCCCCCCCCCCCC(=O)O)C(=O)N[C@@H](CC(N)=O)C(=O)N[C@@H]([C@@H](C)O)C(=O)N[C@@H](C)C(=O)N[C@@H]([C@@H](C)O)C(=O)N1)[C@@H](C)O)C(=O)N1CCC[C@H]1C(=O)N[C@@H](CO)C(=O)N[C@@H](CO)C(=O)N[C@H](C(=O)N[C@@H](CC(N)=O)C(=O)N[C@H](C(=O)NCC(=O)N[C@@H](CO)C(=O)N[C@@H](CC(N)=O)C(=O)N[C@H](C(=O)N[C@@H](Cc1ccc(O)cc1)C(N)=O)[C@@H](C)O)C(C)C)[C@@H](C)O, also called compound 90) [N^ε1-[2-[2-[2-(19-carboxynonadecanoylamino)ethoxy]ethoxy]acetyl]-[His14,Arg17,Pro21,Pro27]-h-amylin] | 74.1 | 42.2 | 18.2 | 0.246
2 | K([AEEA-AEEA-γGlu-C20 diacid])CNTATCATQRLANFLRHSSPNFGAIPSSTNVGRNTY-NH2 (disulfide 2-7; N-terminus assumed; SMILES CC[C@H](C)[C@H](NC(=O)[C@H](C)NC(=O)CNC(=O)[C@H](Cc1ccccc1)NC(=O)[C@H](CC(N)=O)NC(=O)[C@@H]1CCCN1C(=O)[C@H](CO)NC(=O)[C@H](CO)NC(=O)[C@H](Cc1c[nH]cn1)NC(=O)[C@H](CCCNC(=N)N)NC(=O)[C@H](CC(C)C)NC(=O)[C@H](Cc1ccccc1)NC(=O)[C@H](CC(N)=O)NC(=O)[C@H](C)NC(=O)[C@H](CC(C)C)NC(=O)[C@H](CCCNC(=N)N)NC(=O)[C@H](CCC(N)=O)NC(=O)[C@@H](NC(=O)[C@H](C)NC(=O)[C@@H]1CSSC[C@H](NC(=O)[C@@H](N)CCCCNC(=O)COCCOCCNC(=O)COCCOCCNC(=O)CC[C@H](NC(=O)CCCCCCCCCCCCCCCCCCC(=O)O)C(=O)O)C(=O)N[C@@H](CC(N)=O)C(=O)N[C@@H]([C@@H](C)O)C(=O)N[C@@H](C)C(=O)N[C@@H]([C@@H](C)O)C(=O)N1)[C@@H](C)O)C(=O)N1CCC[C@H]1C(=O)N[C@@H](CO)C(=O)N[C@@H](CO)C(=O)N[C@H](C(=O)N[C@@H](CC(N)=O)C(=O)N[C@H](C(=O)NCC(=O)N[C@@H](CCCNC(=N)N)C(=O)N[C@@H](CC(N)=O)C(=O)N[C@H](C(=O)N[C@@H](Cc1ccc(O)cc1)C(N)=O)[C@@H](C)O)C(C)C)[C@@H](C)O, also called compound 95) | 71.3 | 63.4 | 388 | 5.45
